{
  "source": "paper PMC10514999",
  "about": "“The PyPIF5-PymiR156a-PySPL9-PyMYB114/MYB10 module regulates light-induced anthocyanin biosynthesis in red pear”",
  "binders": {"B1": {"name": "Cold-probe (dsDNA)", "DNA 1": "TTGTAAAGAACACGTACGTTACACGTACGCTGAAACA", "DNA 2": "TGTTTCAGCGTAGTGTAACGTACGTGTTCTTTACAA"}, "B2": {"name": "Bio-Mut-probe (dsDNA)", "DNA 1": "TTGTAAAGAACAGATACGTTACACTACGCTGAAACA", "DNA 2": "B1 DNA 2 with C23T, G24C"}},
  "key": {"PyPIF5 [1]": {"target": "T1, PyPIF5 (Pyrus (red pear; cultivar of the cloned …, UniProt A0A5N5GDZ9 1-552)", "T1 sequence": "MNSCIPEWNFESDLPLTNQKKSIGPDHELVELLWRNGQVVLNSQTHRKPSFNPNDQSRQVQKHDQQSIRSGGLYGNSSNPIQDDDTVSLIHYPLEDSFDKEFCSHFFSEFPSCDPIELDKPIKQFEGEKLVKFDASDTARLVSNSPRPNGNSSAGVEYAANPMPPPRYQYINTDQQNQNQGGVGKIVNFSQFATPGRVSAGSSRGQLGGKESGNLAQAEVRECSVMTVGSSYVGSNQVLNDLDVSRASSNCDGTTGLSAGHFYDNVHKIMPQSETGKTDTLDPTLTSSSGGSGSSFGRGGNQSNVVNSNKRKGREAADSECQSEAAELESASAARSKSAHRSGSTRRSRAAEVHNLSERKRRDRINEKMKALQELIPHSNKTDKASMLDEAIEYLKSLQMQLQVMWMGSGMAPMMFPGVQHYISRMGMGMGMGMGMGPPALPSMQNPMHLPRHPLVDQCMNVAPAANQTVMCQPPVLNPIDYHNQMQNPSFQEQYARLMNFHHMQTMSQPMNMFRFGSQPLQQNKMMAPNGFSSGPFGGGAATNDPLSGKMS", "assay": "competition; unlabeled competitor of N1; binding gradually reduced; EMSA: 500 ng PyPIF5-His, 20 nM biotin probe, 20 uL with 4 uL 5x EMSA/Gel-Shift buffer (Beyotime GS009), 20 min, room temperature (~25 C); salt and pH not stated", "details": "protein: recombinant; tags: His (pColdTF vector); chain copies: 2; as N1, 37/36 nt as printed"}, "PyPIF5 [2]": {"target": "T1, PyPIF5", "assay": "EMSA; mutant probe, G-box destroyed; Methods also describe it as a competitor; EMSA: 500 ng PyPIF5-His, 20 nM biotin probe, 20 uL with 4 uL 5x EMSA/Gel-Shift buffer (Beyotime GS009), 20 min, room temperature (~25 C); salt and pH not stated", "details": "protein: recombinant; tags: His (pColdTF vector); chain copies: 2; label: biotin; blunt"}},
  "note": "Positions count from the first letter of the chain named.",
  "data": [
    {"binder": "B1", "values": [
      {"measurement": "binding result", "setting": "PyPIF5 [1]", "value": "binds"}
    ]},
    {"binder": "B2", "values": [
      {"measurement": "binding result", "setting": "PyPIF5 [2]", "value": "no binding"}
    ]}
  ]
}
